Source: patent publication US9896488B2

Biological target: Fc-tagged extracellular domain of RPTPσ (wild type) (mouse) (UniProt B0V2N1)
Test: ELISA: RPTPσ-Fc on protein G plates, biotinylated aggrecan (5 ug/ml) preincubated with protamine (0-5 ug/ml). The reference is binding without protamine.

fold increase of binding in the presence of protamine: 2 fold
Substance: Biotinylated aggrecan (from UniProt P13608)
